Starred links: 1 amine or outer side, 2 acyl side, 3 side chain; linkers in the order of their positions; H or OH if unused. Positions of bridges follow the written chain, without caps; N, C: chain ends. Non-standard residues stand in square brackets, D forms with d. Primed or numbered codes have the meaning given here. PyrS2″ = (S)-3-amino-1-((pent-4-en-1-yloxy)carbonyl)pyrrolidine-3-carboxylic acid (stapling residue), C=CCCCOC(=O)N1CC[C@@](N[*:1])(C(=O)[*:2])C1; B5(16) = 2-amino-2-(pent-4-en-1-yl)hept-6-enoic acid = 2,2-bis(4-pentenyl)glycine (stitching residue), C=CCCCC(CCCC=C)(N[*:1])C(=O)[*:2]; B5(24) = 2-amino-2-(pent-4-en-1-yl)hept-6-enoic acid, 2,2-bis(4-pentenyl)glycine (stitching residue), C=CCCCC(CCCC=C)(N[*:1])C(=O)[*:2]; B5(4) = 2,2-bis(4-pentenyl)glycine = 2-amino-2-(pent-4-en-1-yl)hept-6-enoic acid (stitching residue), C=CCCCC(CCCC=C)(N[*:1])C(=O)[*:2]; PyrS2 = (S)-3-amino-1-((pent-4-en-1-yloxy)carbonyl)pyrrolidine-3-carboxylic acid, C=CCCCOC(=O)N1CC[C@@](N[*:1])(C(=O)[*:2])C1; B5 = 2-amino-2-(pent-4-en-1-yl)hept-6-enoic acid, C=CCCCC(CCCC=C)(N[*:1])C(=O)[*:2]; Phe(2-Cl) = N[C@@H](Cc1ccccc1Cl)C(=O)O; Bta = N[C@@H](Cc1csc2ccccc12)C(=O)O; Lys(iPr) = CC(C)NCCCC[C@H](N)C(=O)O; αAllylPro = C=CC[C@@]1(C(=O)O)CCCN1; tBuAla = CC(C)(C)C[C@H](N)C(=O)O; S8 = C=CCCCCCC[C@](C)(N)C(=O)O; hSer = N[C@@H](CCO)C(=O)O
T1: full-length beta-Catenin (Uniprot ID P35222) (Homo sapiens (Human), UniProt P35222 2-781)
T1 construct: also called bCat; B-Catenin
T1 sequence: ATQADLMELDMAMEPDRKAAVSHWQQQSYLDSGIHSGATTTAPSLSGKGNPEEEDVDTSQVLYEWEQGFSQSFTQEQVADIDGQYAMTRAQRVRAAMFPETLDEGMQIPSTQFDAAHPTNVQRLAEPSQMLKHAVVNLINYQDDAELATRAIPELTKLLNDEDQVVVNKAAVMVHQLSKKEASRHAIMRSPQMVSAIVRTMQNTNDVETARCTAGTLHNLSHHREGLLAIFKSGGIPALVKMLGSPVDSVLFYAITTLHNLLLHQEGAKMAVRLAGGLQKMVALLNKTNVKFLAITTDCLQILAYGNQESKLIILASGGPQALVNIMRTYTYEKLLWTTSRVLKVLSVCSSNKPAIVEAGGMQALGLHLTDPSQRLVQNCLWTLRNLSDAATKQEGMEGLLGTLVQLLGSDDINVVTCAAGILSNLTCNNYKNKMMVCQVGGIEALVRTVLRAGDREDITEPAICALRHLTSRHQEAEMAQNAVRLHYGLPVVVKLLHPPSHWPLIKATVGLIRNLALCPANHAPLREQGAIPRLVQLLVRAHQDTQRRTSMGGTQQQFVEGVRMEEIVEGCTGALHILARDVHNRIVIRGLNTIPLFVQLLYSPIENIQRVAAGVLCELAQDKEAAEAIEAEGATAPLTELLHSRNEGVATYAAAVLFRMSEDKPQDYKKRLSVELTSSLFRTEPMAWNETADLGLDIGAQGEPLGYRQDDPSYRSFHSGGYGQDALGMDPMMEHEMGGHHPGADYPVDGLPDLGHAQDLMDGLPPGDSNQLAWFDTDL

T2: full-length beta-Catenin (Uniprot ID P35222) (Homo sapiens (Human), UniProt P35222 1-781)
T2 construct: The assay text says full-length; also called bCat; B-Catenin
T2 sequence: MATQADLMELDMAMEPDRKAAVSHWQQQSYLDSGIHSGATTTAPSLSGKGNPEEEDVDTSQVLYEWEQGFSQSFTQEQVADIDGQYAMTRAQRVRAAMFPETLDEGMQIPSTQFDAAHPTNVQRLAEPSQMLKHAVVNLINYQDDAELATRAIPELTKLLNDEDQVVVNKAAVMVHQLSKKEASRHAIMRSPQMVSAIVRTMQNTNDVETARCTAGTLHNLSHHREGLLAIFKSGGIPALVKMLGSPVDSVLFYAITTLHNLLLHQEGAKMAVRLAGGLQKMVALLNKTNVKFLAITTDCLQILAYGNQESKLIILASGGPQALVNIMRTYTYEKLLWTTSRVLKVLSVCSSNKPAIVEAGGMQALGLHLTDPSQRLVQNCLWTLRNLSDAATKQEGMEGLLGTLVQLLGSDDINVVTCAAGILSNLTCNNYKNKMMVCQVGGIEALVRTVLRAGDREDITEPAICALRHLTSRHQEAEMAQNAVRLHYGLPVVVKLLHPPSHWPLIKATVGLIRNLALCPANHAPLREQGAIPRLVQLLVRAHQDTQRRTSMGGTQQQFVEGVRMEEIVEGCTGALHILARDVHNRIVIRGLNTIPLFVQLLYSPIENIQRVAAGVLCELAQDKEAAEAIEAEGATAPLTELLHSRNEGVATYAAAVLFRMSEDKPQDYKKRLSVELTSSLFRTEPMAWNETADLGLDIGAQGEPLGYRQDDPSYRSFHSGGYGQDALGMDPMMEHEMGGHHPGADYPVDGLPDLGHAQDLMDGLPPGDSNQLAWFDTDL

T3: Bcat-Halo (UniProt P35222 1-781, HaloTag NanoBRET 618 Ligand bound in the assay)
T3 construct: Expressed by transfection in HEK293 cells; also called beta-catenin HaloTag NanoBRET construct; not shown: HaloTag
T3 sequence (looked up): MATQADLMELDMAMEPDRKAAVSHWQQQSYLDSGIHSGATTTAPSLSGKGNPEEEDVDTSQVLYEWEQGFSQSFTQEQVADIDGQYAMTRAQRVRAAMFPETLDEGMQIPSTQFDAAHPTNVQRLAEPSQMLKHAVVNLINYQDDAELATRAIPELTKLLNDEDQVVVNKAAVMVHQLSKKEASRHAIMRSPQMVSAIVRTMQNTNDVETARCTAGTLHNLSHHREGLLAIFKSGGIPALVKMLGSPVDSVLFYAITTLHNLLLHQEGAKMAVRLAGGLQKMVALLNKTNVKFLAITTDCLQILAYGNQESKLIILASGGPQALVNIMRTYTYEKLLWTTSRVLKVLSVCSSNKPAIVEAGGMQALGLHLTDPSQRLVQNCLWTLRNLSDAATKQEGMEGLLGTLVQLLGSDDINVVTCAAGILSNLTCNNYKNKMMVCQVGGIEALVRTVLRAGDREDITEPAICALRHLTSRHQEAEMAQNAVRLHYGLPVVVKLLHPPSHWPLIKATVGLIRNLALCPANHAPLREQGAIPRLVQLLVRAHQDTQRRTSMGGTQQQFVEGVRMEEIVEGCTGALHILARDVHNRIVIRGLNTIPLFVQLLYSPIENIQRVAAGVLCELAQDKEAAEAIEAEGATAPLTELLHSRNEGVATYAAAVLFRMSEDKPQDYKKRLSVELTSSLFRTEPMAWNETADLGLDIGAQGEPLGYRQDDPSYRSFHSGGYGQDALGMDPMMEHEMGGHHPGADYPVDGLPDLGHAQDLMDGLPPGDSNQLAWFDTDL

T4: full-length beta-Catenin (Uniprot ID P35222) (Homo sapiens (Human), UniProt P35222 2-781)
T4 construct: also called bCat; B-Catenin
T4 sequence: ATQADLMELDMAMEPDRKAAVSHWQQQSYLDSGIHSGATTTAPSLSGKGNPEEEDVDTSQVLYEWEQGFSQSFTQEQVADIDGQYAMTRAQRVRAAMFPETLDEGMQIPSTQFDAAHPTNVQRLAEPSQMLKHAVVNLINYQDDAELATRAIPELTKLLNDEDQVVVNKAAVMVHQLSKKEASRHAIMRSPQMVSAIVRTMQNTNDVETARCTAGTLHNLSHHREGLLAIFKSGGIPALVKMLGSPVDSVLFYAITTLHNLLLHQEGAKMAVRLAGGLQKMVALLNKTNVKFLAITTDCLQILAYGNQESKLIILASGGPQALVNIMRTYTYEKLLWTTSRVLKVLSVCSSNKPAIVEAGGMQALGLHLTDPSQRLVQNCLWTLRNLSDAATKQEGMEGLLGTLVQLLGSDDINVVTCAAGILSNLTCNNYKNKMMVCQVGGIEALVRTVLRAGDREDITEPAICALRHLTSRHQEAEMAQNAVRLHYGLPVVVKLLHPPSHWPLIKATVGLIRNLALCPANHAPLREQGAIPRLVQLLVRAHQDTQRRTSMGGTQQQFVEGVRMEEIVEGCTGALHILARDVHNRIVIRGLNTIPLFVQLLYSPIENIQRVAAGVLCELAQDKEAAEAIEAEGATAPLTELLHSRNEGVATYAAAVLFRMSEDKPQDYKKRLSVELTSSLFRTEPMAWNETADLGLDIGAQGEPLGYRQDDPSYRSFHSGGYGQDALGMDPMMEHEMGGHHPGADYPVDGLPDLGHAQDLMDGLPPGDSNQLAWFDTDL


Tests used:
[1] = target: T1, full-length beta-Catenin (Uniprot ID …); test: fluorescence polarization competition; full-length beta-catenin, 5FAM-TCF4(10-53) probe as competitor
Method: The plate was incubated protected from light for 60 minutes at 20° C. prior to read. Reads were performed on a CLARIOstar plate reader (BMG Labtech) in duplicate, and data were fitted to a 1:1 binding model with hill slope using an in-house script. All provided concentrations are final concentrations.

[2] = target: T2, full-length beta-Catenin (Uniprot ID …); test: fluorescence polarization competition; full-length beta-catenin with 5FAM-TCF4(10-53) probe as competitor
Outline: (§1)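 Data fitted to 1:1 binding model with hill slope from duplicate reads taken after 60 minutes at 20° C. in the dark.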

[3] = target: T3, Bcat-Halo; test: NanoBRET Abs IC50 in HEK293 cells; competitor TCF4-Luc on Bcat-Halo
[4] = target: T4, full-length beta-Catenin (Uniprot ID …); test: fluorescence polarization competition vs 5FAM-TCF4(10-53) on full-length beta-catenin
Outline: as §1

Row | Binder | IC50 [2] [nM] | IC50 [3] [nM] | also measured
1 | Ac-[αAllylPro]N[tBuAla][B5(4)]DT[Lys(iPr)]AFL[PyrS2″]FYQ-NH2 (staple 1-4, 4-11) [I-1585] |  |  | IC50 [1]: 10000 nM
2 | XDIXDEAAFQXFXQ (N-terminal Bnc cap; PL3 (pos 1), B5 (pos 4), S8 (pos 11) stapled (PL3-B5 and B5-S8, olefin metathesis); BztA (pos 13); C-terminal NH2, Stapled peptide; also called Bnc-PL3-Asp-Ile-B5-Asp-Glu-Ala-Ala-Phe-Gln-S8-Phe-BztA-Gln-NH2) [I-601] | 419 |  | 
3 | XDIXDRAAFQXFXQ (not fully specified; N-terminal Ac; PL3 (pos 1), B5 (pos 4), S8 (pos 11) stapled (PL3-B5 and B5-S8); BztA (pos 13); C-terminal NH2, Stapled peptide; also called Ac-PL3-Asp-Ile-B5-Asp-Arg-Ala-Ala-Phe-Gln-S8-Phe-BztA-Gln-NH2) [I-613] | 1630 |  | 
4 | XDIXDRAAFQXFXQ (not fully specified; N-terminal Ac; PL3 (pos 1), B5 (pos 4), S8 (pos 11) stapled (PL3-B5 and B5-S8); BztA (pos 13); C-terminal NH2, Stapled peptide; also called Ac-PL3-Asp-Ile-B5-Asp-Arg-Ala-Ala-Phe-Gln-S8-Phe-BztA-Gln-NH2) [I-614] | 1140 |  | 
5 | Ac-[αAllylPro]DI[B5]DQAAFQ[S8]F[Bta]Q-NH2 (staple 1-4, 4-11, Stapled peptide; also called Ac-PL3-Asp-Ile-B5-Asp-Gln-Ala-Ala-Phe-Gln-S8-Phe-BztA-Gln-NH2) [I-603] | 392 |  | 
6 | XDLXDEAAFTXFXH (not fully specified; N-terminal Ac; PL3 (pos 1), B5 (pos 4), S8 (pos 11) stapled (PL3-B5 and B5-S8); BztA (pos 13); C-terminal NH2, Stapled peptide; also called Ac-PL3-Asp-Leu-B5-Asp-Glu-Ala-Ala-Phe-Thr-S8-Phe-BztA-His-NH2) [I-618] | 135 |  | 
7 | Ac-[αAllylPro]DF[B5(24)]DDAAFS[PyrS2″][Phe(2-Cl)][Bta]T-NH2 (staple 1-4, 4-11, Stapled (stitched) peptide composition; olefin isomer not specified) [I-1141] |  | 27300 | 
8 | XDLXDEAAFTXFXH (not fully specified; N-terminal Ac; PL3 (pos 1), B5 (pos 4), S8 (pos 11) stapled (PL3-B5 and B5-S8); BztA (pos 13); C-terminal NH2, Stapled peptide; also called Ac-PL3-Asp-Leu-B5-Asp-Glu-Ala-Ala-Phe-Thr-S8-Phe-BztA-His-NH2) [I-617] | 253 |  | 

More lines, main results first:

Row | IC50 [2] [nM] | IC50 [3] [nM] | Binder | also measured
9 |  | > 20000 | Ac-[αAllylPro]DF[B5(4)]DDALFT[PyrS2″][Phe(2-Cl)][Bta]S-NH2 (staple 1-4, 4-11, Stapled (stitched) peptide composition; olefin isomer not specified) [I-1157] | IC50 [4]: 36 nM
10 |  | 30600 | Ac-[αAllylPro]DF[B5]DDAAFL[PyrS2][Phe(2-Cl)][Bta]T-NH2 (staple 1-4, 4-11, Stapled (stitched) peptide composition; olefin isomer not specified) [I-1145] | IC50 [4]: 18 nM
11 |  | 32800 | Ac-[αAllylPro]DF[B5(24)]DDAAFS[PyrS2″][Phe(2-Cl)][Bta]L-NH2 (staple 1-4, 4-11, Stapled (stitched) peptide composition; olefin isomer not specified) [I-1144] | 
12 |  | 33100 | Ac-[αAllylPro]DF[B5]DDAAFS[PyrS2][Phe(2-Cl)][Bta][hSer]-NH2 (staple 1-4, 4-11, Stapled (stitched) peptide composition; olefin isomer not specified) [I-1143] | IC50 [4]: 12 nM
13 |  | > 20000 | Ac-[αAllylPro]DF[B5(16)]DDAAFL[PyrS2″][Phe(2-Cl)][Bta][dT]-NH2 (staple 1-4, 4-11, Stapled (stitched) peptide composition; olefin isomer not specified) [I-1146] | IC50 [4]: 33 nM
14 | 230 |  | XDLXDEAAFTXFXQ (not fully specified; N-terminal Ac; PL3 (pos 1), B5 (pos 4), S8 (pos 11) stapled (PL3-B5 and B5-S8); BztA (pos 13); C-terminal NH2, Stapled peptide; also called Ac-PL3-Asp-Leu-B5-Asp-Glu-Ala-Ala-Phe-Thr-S8-Phe-BztA-Gln-NH2) [I-622] | 
15 | 103 |  | XDLXDEAAFTXFXQ (not fully specified; N-terminal Ac; PL3 (pos 1), B5 (pos 4), S8 (pos 11) stapled (PL3-B5 and B5-S8); BztA (pos 13); C-terminal NH2, Stapled peptide; also called Ac-PL3-Asp-Leu-B5-Asp-Glu-Ala-Ala-Phe-Thr-S8-Phe-BztA-Gln-NH2) [I-623] | 

— patent US20240116985A1 (published 2024)
